Laboratory results published in the DeepSol protein solubility set.

Test: soluble on expression in E. coli; label from the status in PepcDB or PDB records

Soluble on expression in E. coli, not soluble:
MGSDKIHHHHHHMDLNALTLLVDILDAGNLSKAAQRLKMSRANVSYRLNQLEKSIGLQLVRRTTRRIEPTEIGLRLYEHGRRIQSELFAAREAVTTLGQDLQGRVRLSVPSGYGQLVMSNWLIAFKRLYPGIVLDVVFENRIEDLMRDEVDIAVRVMSEPPQNLVARDMGAVRYVACASPGFAATHGMPTELGQLFDAPVITSTVVGRQLRVAAYLGDERHEVLLEPTLISENFLFLRQAILAGLGVGIVPDYVVHDDVRRGAVVTTLDAYRLSIFGTHMYMLYMPNRHHTRATSTFIDFMLEEARNAGRGG
MGSDKIHHHHHHMDLPDSASRVFCGRILSMVNTDDVNAIILAQKNMLDRFEKTNEMLLNFNNLSSARLQQMSERFLHHTRTLVEMKRDLDSIFRRIRTLKGKLARQHPEAFSHIPEASFLEEEDEDPIPPSTTTTIATSEQSTGSCDTSPDTVSPSLSPGFEDLSHVQAGSPAINGRSQTDDEEMTGE
MGSDKIHHHHHHMDLRQIKTFVVVAEELHFGRAAARLQIAQPAVTAQIQALERQLGVPLLIRSTRRVQLTEAGMIFNSRCIDILRDIDRTCLATQAVAGKDLHQITIGTIYPATFGVLPNFVSRINQRFPEARIHIHNGNTVGIVREIERGNINLGFIRPVENIGSLRWQSIHREKYLLAIARENPLSSKSTVTPDDLRKQKIIAFSRAYNSQTDDNFPEEFKKYDLNQQVVYSCNDTQAMLAMITAGIGVGFVPEWVKSIPGQNFELREVEGLERHIGLGLAWSVDDPTVNRDSIIELCRTLIGSEVDWPR
MGSDKIHHHHHHMDLSSNRLAGKSILITRPLHQAGGLATWVRELGGEPWLFPVLEISDSENKQPLLDLIARLDEFDLAVFVSPNAVEKVIPLVQVSHSWPRHVLVATVGKGSARVLERYGITNVIVPEEGSDSEALLRMPQFQVMQGRHVVIFRGNDGRRLLGDTLRERGASVEYIECYRRHKPEADPLPLLKHWRDDGIQAVIISSSEGLDNLFDMIGETGQQLLKATPVFTAHERIERKARELGIRKIYRTLLGDEGTVQGLLEYFEKM
MGSDKIHHHHHHMDNIKQLSRLIIFAEVVQQGSFTGAAKQLGITKSAVSQQIKSLEADMDIRVLNRTTRGVSTTALGQKLLSRCQVLKDQVDLIFKDIVNAEENPRGRFAITLPHSLESNVVMPAIEQLCIEYPGIEPEIIVSDSSLDLVENNLDVAIHAGDLPDSSYRALPIGTITEIFCATPLYLNKNFTPQKLSDLAQLKWISTSWQKQKMSVYNSTNKEKVTIELTQFSKVNTFSTALAMALRHLGLVLLPDNVAKPLIKSGELVHIMEQFTGPVWPVHTLHAYQREKPVHLTRFHQLLCNHFHNL
MGSDKIHHHHHHMDQGDDGDGQTANADYSIRIAAGIGAFTCDEWNGFAGTTRSDAENGYNPLVSFAFLSALEDSGCAVRRTGWQGHHVRLETAQGRLLGAVPCYLKSHSQGEYVFDHGWSDAFERAGGRYYPKLQCAVPFTPVTGPRLLVNRGEDPDAVKAGLAAGLKMVTDKLGVSSAHVTFAQESDVATLEAAGFLHRTDQQFHFFNEGFSTYDDFLATLASRKRKAMKKERREALADGITIDWLTGKDLTEKAWDDFFAFYMDTGSRKWGRPYLNRQFFSLIGERMADDILLVMARRNGRYVAGAINFIGSDALYGRNWGCIEDHPFLHFEVCYHQAIDFAIERKLKVVEAGAQGEHKLARGYRPVTMHSAHYISHPGLRNAVADYLQRERREVERMGEYLEEHTPFRKDLEE
MGSDKIHHHHHHMDRIIEKLDHGWWVVSHEQKLWLPKGELPYGERANFDLVGQRALQIGEWQGEPVWLVQQQRRHDMGSVRQVIDLDVGLFQLAGRGVQLAEFYRSHKYCGYCGHEMYPSKTEWAMLCSHCRERYYPQIAPCIIVAIRRDDSILLAQHTRHRNGVHTVLAGFVEVGETLEQAVAREVMEESGIKVKNLRYVTSQPWPFPQSLMTAFMAEYDSGDIVIDPKELLEANWYRYDDLPLLPPPGTVARRLIEDTVAMCRAEYE
MGSDKIHHHHHHMDSMQTTETFQVLKIGADAYIKRRNQRLLSNHRKDLRKFTRAEAFTYLDIDAKTLDKYVATADFDPRRHEDSQWLINIEEMYQLRDLLPENLRKASKFKRSDNQKMQVIVIQNQKGGVGKTVSAATIASGLATEFHQEYRVGLIDMDGQATLSMYYAPEADLEGCLSVGDLMMNNFDLDEGETLEQVVSNAFLPTTIPNLRILPASQSDRAIEGWFHEQVFGQKLTSPYSLLNTIINAVQDEFDIIIIDTPPSLGYATYNAYFAATSVVFPLSITENDIDATCSYFSYIPQVWALLANANHRGYDFMKILITNHRDSATTTDLMNTLYDHFAPYMYSNEFKHSEAIRQSSSLLSTVFDMSKSEYPKSKATFQSAQQNCYEVTSQVLRDIVNVWREQEQA
